{
  "source": "patent US11535851B2",
  "about": "“Reagents for treatment of hepatitis B virus (HBV) infection and use thereof” (priority 2016, dated 2022)",
  "molecules": {"B1": {"name": "shmiR-6: shmiR targeting HBV; RNA SEQ ID NO: 48, encoded by DNA SEQ ID NO: 64 (nucleic acid)", "chain": "GGUAUAUUGCUGUUGACAGUGAGCGACAGGUCCCCUAGAAGAAGAAACUGUGAAGCAGAUGGGUUUCUUCUUCUAGGGGACCUGCCGCCUACUGCCUCGGACUUCAA", "modifications": "expressed or natural sequence"}, "B2": {"name": "shmiR-15: shmiR targeting HBV; RNA SEQ ID NO: 57, encoded by DNA SEQ ID NO: 73 (nucleic acid)", "chain": "GGUAUAUUGCUGUUGACAGUGAGCGAAGUGGUUCGUAGGGCUUUCCACUGUGAAGCAGAUGGGUGGAAAGCCCUACGAACCACUGCGCCUACUGCCUCGGACUUCAA", "modifications": "expressed or natural sequence"}, "B3": {"name": "shmiR-12: shmiR targeting HBV; RNA SEQ ID NO: 54, encoded by DNA SEQ ID NO: 70 (nucleic acid)", "chain": "GGUAUAUUGCUGUUGACAGUGAGCGAGUCCCGUCGGCGCUGAAUCCACUGUGAAGCAGAUGGGUGGAUUCAGCGCCGACGGGACGCGCCUACUGCCUCGGACUUCAA", "modifications": "expressed or natural sequence"}},
  "key": {"[1]": {"tested_on": "Luciferase reporter constructs carrying effector or effector complement sequences (HBV transcripts)", "test": "Dual-luciferase reporter assay (strand preference activity) in HEK293 cells", "assay_type": "cell-based", "conditions": "FIG. 1A; for activity of constructs in luciferase reporter assay: compared directly to corresponding shRNA constructs; for antisense (effector) strand activity (strand preference activity): relative to shRNA expressing counterparts", "method": "Efficacy of the ddRNAi constructs expressing shmiRs or shRNAs of the disclosure to knockdown HBV transcripts is determined using dual-luciferase reporter assays in HEK293 cells.\nPlasmid reporter constructs based on the pGL3 Luciferase Reporter Vector are constructed for effector and effector complement sequences from each of the shmiRs and shRNAs of the disclosure. Luciferase reporter constructs e.g., firefly luciferase reporter constructs, are generated by inserting the respective effector sequence or effector complement sequence of the shmiRs or shRNAs (as appropriate) with 20 bp flanking sequences at each end into the pGL3-control vector (Promega, Madison, Wis.). The inserts are subcloned using FseI and XbaI restriction enzyme sites following the luciferase reporter gene.\nThe dual-luciferase reporter assays are performed in HEK293 cells (ATCC). The HEK293 cells are cultured in DMEM medium containing 10% fetal bovine serum, 2 mM glutamine, penicillin (100 U/mL), and streptomycin (100 μg/mL) at 37° C. humid incubator with 5% CO2. The HEK293 cell are seeded at a density of 2×10^4 cells per well into 96-well culture plate one day prior to transfection.\nddRNAi expression constructs described in Example 1 (i.e., ddRNAi constructs designated HBV-shmiR1 to HBV-shmiR16, HBV-shmiRx3-v1 and HBV-shmiRx3-v2) are synthesized and inserted into an appropriate plasmid vector e.g., a pSsh vector, optionally with a proximal sequence element 7 (PSE7) for constructs expressing shRNAs.\nExpression vectors comprising the ddRNAi expression constructs are co-transfected into HEK293 cells with a Luciferase reporter construct e.g., a firefly luciferase reporter construct, expressing an effector sequence or effector complement sequence of the corresponding shmiR or shRNA (as appropriate) at a ratio of 10:1 (ddRNAi expression construct: Luciferase reporter construct) using 0.3 uL of Lipofectamine 2000 reagent (Life Technologies, Carlsbad, Calif.) according to manufacturer's instructions. Cells are also transfected with 1 ng of a Renilla reporter construct (serving as a transfection control). 48 hour post-transfection, cell lysates are collected and analyzed using Dual Luciferase Reporter Assay System (Promega, Madison, Wis.). The firefly/Renilla activity ratios are determined for each transfection. Percentage inhibition of reporter expression is calculated relative to a negative control e.g., a construct expressing a random non-targeting sequence. The experiment is performed in replicate.\nIn addition, the three ddRNAi shmiR constructs (i.e., the ddRNAi shmiR constructs expressing shmiR6, shmiR15 and shmiR12 respectively) were compared for strand preference activity relative to their shRNA expressing counterparts.\nThe influence of addition of an ‘A’ nucleotide at the 3′ end or a ‘G’ nucleotide at the 5′ end of the sense sequence on thermodynamics of the shmiR variant was also assessed. The idea is to allow for the antisense (or effector) strand to be preferentially loaded into the RISC complex for functional RNAi activity."}, "HepG2.2.15 cells": {"tested_on": "HepG2.2.15 cells", "test": "RNAi effector molecules (copies per cell) in HepG2.2.15 cells transduced with AdV vectors", "assay_type": "cell-based, human", "conditions": "HepG2.2.15, AdV vectors MOI 100, days 3-6; versus corresponding shRNA; FIG. 3", "method": "Single and triple shmiR or shRNA AdV vectors were prepared by subcloning the ddRNAi expression constructs described in Example 1 (i.e., ddRNAi constructs designated HBV-shmiR1 to HBV-shmiR16, HBV-shRNA1-HBV-shRNA16, HBV-shmiRx3-v1, HBV-shmiRx3-v2 and HBV-shRNAx3-v1) into a adenovirus (AdV) construct for virus production (Vector Biolabs, Malvern Pa.).\nHepG2.2.15 cells were infected with the HBV shmiR AdV vectors or HBV shRNA AdV vectors in cell suspension and cultured on multi-well plates. Each well contained a suspension of approximately 1.25×10^5 HepG2.2.15 cells and one of the single or triple HBV shmiR AdV vectors, or one of the single or triple HBV shRNA AdV vectors, at MOI-100. Following transduction, cells were cultured at 37° C. at 5% CO2 for 3-7 days and harvested for total RNA isolation using Qiagen miRNeasy mini kit (Valencia, Calif.) at 3, 4, 5, and 6 days post-transfection.\nTotal RNAs were quantified using the NanoDrop 1000 Spectrophotometer (Thermo Scientific) and then diluted to a working concentration of 10 ng/μl.\nRNAi effector molecules expressed as copies per cell were determined for shmiR-12 and shmiR-15 (FIGS. 3A and 3B, respectively) when expressed in HepG2.2.15 cells from single or triple HBV shmiR AdV vector(s) using Qiagen's miScript PCR system (designed to quantitate RNA effector molecules processed from shmiR or shRNA). […]"}, "[2]": {"tested_on": "HBV transcripts at regions corresponding to HBsAg, HBcAg and HbxAg", "test": "Inhibition of HBV transcripts in HepG2.2.15 cells transduced with AdV vectors (RT-qPCR, relative to GAPDH mRNA)", "assay_type": "cell-based, HBV (serotype ayw, genotype D)", "conditions": "HepG2.2.15, MOI of 100, 3, 4, 5 and 6 days after infection; versus corresponding shRNA constructs; FIG. 4", "method": "Levels of inhibition of HBV transcripts at regions corresponding to HBV antigens HBsAg, HBcAg and HbxAg, relative to levels of GAPDH mRNA, are determined by normalizing the respective HBV mRNA transcript levels to GAPDH mRNA for each sample. Briefly, 100 ng of total RNA is used to synthesize cDNA using High Capacity cDNA Reverse Transcription Kit (Life Technologies, Carlsbad, Calif.) according to manufacturer instructions. Quantitative PCR amplifications of regions within HBV antigens HBsAg, HBcAg, HbxAg, and GAPDH is then performed using Power SYBR Green PCR Master Mix (Life Technologies) and the primer sets listed in Table 1. Standard real-time PCR conditions are used: initial denaturation at 95° C. for 10 min followed by 40 cycles of 95° C. for 15 sec and 60° C. for 1 min. […]\nLevels of inhibition of HBV transcripts at regions corresponding to HBV antigens HBsAg, HBcAg and HbxAg, relative to levels of GAPDH mRNA, were determined according to the method described in Example 5.\nLevels of inhibition of HBV transcripts at regions corresponding to HBV antigens HBsAg, HBcAg and HbxAg, relative to levels of GAPDH mRNA, for each shmiR of the disclosure (expressed individually, or as part of a triple construct), was determined at an MOI of 100 at 3, 4, 5 and 6 days after infection with HBV shmir or shRNA AdV vectors."}},
  "data": [
    {"molecule": "B1", "values": [
      {"measurement": "activity of constructs in luciferase reporter assay", "setting": "[1]", "value": "more effective than the corresponding shRNA constructs"},
      {"measurement": "antisense (effector) strand activity (strand preference activity)", "setting": "[1]", "value": "higher antisense (effector) strand activity relative to the corresponding shRNAs"}
    ]},
    {"molecule": "B2", "values": [
      {"measurement": "activity of constructs in luciferase reporter assay", "setting": "[1]", "value": "more effective than the corresponding shRNA constructs"},
      {"measurement": "antisense (effector) strand activity (strand preference activity)", "setting": "[1]", "value": "higher antisense (effector) strand activity relative to the corresponding shRNAs"},
      {"measurement": "levels of effector RNAi molecule (copies per cell)", "setting": "HepG2.2.15 cells", "value": "higher than the corresponding shRNAs"},
      {"measurement": "silencing of HBV RNAs (HBsAg, HBcAg, HbxAg regions)", "setting": "[2]", "value": "greater silencing of HBV RNAs compared to the corresponding shRNA expressing constructs"}
    ]},
    {"molecule": "B3", "values": [
      {"measurement": "activity of constructs in luciferase reporter assay", "setting": "[1]", "value": "more effective than the corresponding shRNA constructs"},
      {"measurement": "antisense (effector) strand activity (strand preference activity)", "setting": "[1]", "value": "higher antisense (effector) strand activity relative to the corresponding shRNAs"},
      {"measurement": "levels of effector RNAi molecule (copies per cell)", "setting": "HepG2.2.15 cells", "value": "higher than the corresponding shRNAs"},
      {"measurement": "silencing of HBV RNAs (HBsAg, HBcAg, HbxAg regions)", "setting": "[2]", "value": "greater silencing of HBV RNAs compared to the corresponding shRNA expressing constructs"}
    ]}
  ]
}
